What was measured:
[1] = target: PIDD death domain (PIDD-DD), human, residues 778-883 (human) (UniProt Q9HB75); experiment: native MS; nanoESI-MS, positive ion mode; 15 μM purified complex in 50 mM ammonium acetate pH 7.8
[2] = target: PIDD death domain (PIDD-DD), human, residues 778-883 (human) (UniProt Q9HB75); experiment: SEC-MALS; as a1 but total protein loaded 1.5 mg/mL (lowest concentration; some subunit dissociation)

Sequence of UniProt Q9HB75 (Q9HB75 778-883): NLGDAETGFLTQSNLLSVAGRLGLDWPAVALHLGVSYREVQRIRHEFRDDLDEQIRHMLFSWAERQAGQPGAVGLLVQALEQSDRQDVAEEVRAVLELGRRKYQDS

Row | Substance | population of the 5:5 complex [1] | population of the 6:5 complex [1] | population of the 7:5 complex [1] | stoichiometry N (RAIDD-DD per PIDD-DD (5:5)) [1] | stoichiometry N (RAIDD-DD per PIDD-DD (6:5)) [1] | stoichiometry N (RAIDD-DD per PIDD-DD (7:5)) [1] | population of the 5:4 complex [1] | stoichiometry N (RAIDD-DD per PIDD-DD (5:4)) [1] | stoichiometry N (RAIDD-DD per PIDD-DD (R4:P4)) [2]
1 | RAIDD death domain (RAIDD-DD), human, residues 99-199, wild type (from UniProt P78560 99-199) (domain or fragment) | 28% | 43% | 29% | 1 | 1.2 | 1.4 | – | – | –
2 | RAIDD-DD (E188K) (from UniProt P78560 99-199) (domain or fragment) | 87% | – | – | 1 | – | – | 13% | 1.25 | 1
